From patent US20200109446A1

How the values were obtained:
[1] = tested on: T. fusca Type I-E CRISPR-Cas (Cascade) effector complex
[2] = biological target: Cascade lacking the Cse1 subunit (T. fusca); assay: EMSA, target DNA with a changed PAM and a mismatch at position +1
[3] = biological target: Cascade lacking the Cse1 subunit (T. fusca); assay: EMSA, target DNA with a mismatch to the crRNA at position +1

percent of Cascade complexes converted to the faster-migrating species (Cascade lacking Cse1) [2] [%] | percent of Cascade complexes converted to the faster-migrating species (Cascade lacking Cse1) [3] [%] | Substance | Cas3 nuclease activity [1]
– | – | T. fusca Cas3 | impaired Cas3 recruitment also reduced Cas3 nuclease activity when ATP and Co^+2 were added to the reaction mixtures
100 | 80 | free Cse1 (T. fusca) | –
